According to article PMC3264566, “Structure-Function Studies of DNA Binding Domain of Response Regulator KdpE Reveals Equal Affinity Interactions at DNA Half-Sites”:
Substitutions are numbered along the chain they refer to.

Tests used:
Test in all cases: EMSA; up to 1:8 DNA:protein; AUC: 50 mM HEPES pH 7.4, 150 mM KCl, 1 mM EDTA, 20 C, DNA 0.5 uM in SV; EMSA: 10 mM Tris pH 8.0, 50 mM NaCl, 5% glycerol, 0.1% Triton X-100, 10 mM DTT, 1 mM EDT
Conditions in all cases: protein: recombinant; chain copies: 2; blunt
[1] = biological target: T1, KdpE DBD R200A (Escherichia coli str. K-12 substr. …, UniProt P21866 124-225, R200A)
T1 sequence: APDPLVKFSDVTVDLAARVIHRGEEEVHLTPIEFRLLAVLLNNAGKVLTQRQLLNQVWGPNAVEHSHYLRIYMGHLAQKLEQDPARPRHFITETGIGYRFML

[2] = biological target: T2, KdpE DBD R193A (Escherichia coli str. K-12 substr. …, UniProt P21866 124-225, R193A)
T2 sequence: T1 sequence with R70A, A77R

[3] = biological target: T3, KdpE DBD T215A (Escherichia coli str. K-12 substr. …, UniProt P21866 124-225, T215A)
T3 sequence: T1 sequence with A77R, T92A

Measured: binding result

B1: kdpFABCBS 30 bp (dsDNA)
DNA 1: CATTTTTATACTTTTTTTACACCCCGCCCG
DNA 2: CGGGCGGGGTGTAAAAAAAGTATAAAAATG
no binding: all assays above
